What all share (assay): cell-based or functional assay
Test [1] addresses in-frame fusion between the extracellular domain of 2KIRDL3 (KIR2DL3) and the cytoplasmic ITIM motif of NKIR (pCXND3KIR58NKIR313), expressed in Jurkat cells (human) (UniProt P43628).
The target of test [2] is CD8-NKIR fusion protein (extracellular domain of CD8 alpha chain fused to the cytoplasmic ITIM motif of NKIR; pCXND3CD8NKIRfull), expressed in F11 Jurkat reporter cells (human) (UniProt P01732).
Test [3] concerns the target CD8-KIR fusion protein (extracellular domain of CD8 alpha chain fused to the cytoplasmic ITIM motif of KIR; pCXND3CD8KIRfull), expressed in F11 Jurkat reporter cells (human) (UniProt P01732).

Sequence of UniProt P43628 (P43628 other isoform, or with tags, fused parts or gaps limits assumed): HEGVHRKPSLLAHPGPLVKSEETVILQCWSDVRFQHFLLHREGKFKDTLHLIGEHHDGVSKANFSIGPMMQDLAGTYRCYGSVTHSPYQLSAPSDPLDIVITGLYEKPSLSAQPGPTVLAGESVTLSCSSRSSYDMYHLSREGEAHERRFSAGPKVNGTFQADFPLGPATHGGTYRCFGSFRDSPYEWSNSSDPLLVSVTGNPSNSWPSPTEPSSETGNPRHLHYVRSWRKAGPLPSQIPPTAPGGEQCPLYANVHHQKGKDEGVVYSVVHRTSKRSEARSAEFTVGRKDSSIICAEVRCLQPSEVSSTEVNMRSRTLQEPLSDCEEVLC

In test [1], “GL183 monoclonal antibody (Beckman Coulter)” registered an inhibition of luciferase activity (NFAT-luciferase reporter, anti-CD3 stimulated chimeraA10ZEOR12 cells, GL183 1 µg/ml then rat anti-mouse IgG cross-linking) of 33.3%.
In test [2], “anti-CD8 antibody LT8 (Serotec, MCA1226XZ)” yielded a degree of reduction of luciferase reporter activity (NFAT-luciferase, 10-hour ConA stimulation, LT8 1.5 µg/ml; clone NKIR#16) of 21.2% and a degree of reduction of luciferase reporter activity (NFAT-luciferase, 10-hour ConA stimulation, LT8 1.5 µg/ml; clone NKIR#19) of 30.2%. The degree of reduction of luciferase reporter activity (NFAT-luciferase, 10-hour ConA stimulation, LT8 1.5 µg/ml) in test [3] was determined as 16.6%.

The values above are taken from patent US20070202501A1.
